Laboratory results taken from patent US20120094377A1 (EVROGEN JSC, published 2012).

Key:
[1] = target: the molecule itself; experiment: FPLC gel filtration of purified protein (homodimerization)
[2] = target: the molecule itself; experiment: FPLC gel filtration, Superdex 200 (self-association)
Experimental: Gel filtration chromatography was performed using a Superdex 200 10/300 GL column (Amersham Biosciences), equilibrated with 40 mm Tris-HCl (pH 7.5), 150 mm NaCl buffer at a flow rate of 0.4 ml/min. Apparent molecular masses were calculated by interpolating an elution volume versus log (molecular mass) calibration curve using ferritin (440 kDa), catalase (232 kDa), aldolase (158 kDa), BSA (67 kDa), ovalbumin (43 kDa), chymotrypsinogen A (25 kDa), and ribonuclease A (13.7 kDa). 200 uL of each fluorescent protein at concentration 1 mg/ml were loaded.

B1: mKate2 protein (other)
chain: MVSELIKENMHMKLYMEGTVNNHHFKCTSEGEGKPYEGTQTMRIKAVEGGPLPFAFDILATSFMYGSKTFINHTQGIPDFFKQSFPEGFTWERVTTYEDGGVLTATQDTSLQDGCLIYNVKIRGVNFPSNGPVMQKKTLGWEASTETLYPADGGLEGRADMALKLVGGGHLICNLKTTYRSKKPAKNLKMPGVYYVDRRLERIKEADKETYVEQHEVAVARYCDLPSKLGHR
notes: Engineered far-red fluorescent protein derived from Entacmaea quadricolor eqFP578; The partner is a second copy of the same protein (self-association / dimerization seen by FPLC)
Question: Does B1 bind [1]?
Answer: binds

B2: mKate2.7C (other)
chain: MVSELIKENMPMKLYMEGTVNNHHFKCTSEGEGKPYEGTQTMRIKVVEGGPLPFAFDILATSFMYGSRTFIKHPPGIPDFFKQSFPEGFTWERVTTYEDGGVLTATQDTSLQDGCLIYNVKVRGVNFPANGPVMQKKTLGWEASTETMYPADGGLEGACDMALKLVGGGHLICNLETTYRSKKPATNLKMPGVYNVDHRLERIKEADDETYVEQHEVAVARYSTGGAGDGGK
notes: A vector His tag from pQE30 is probably present but not described; It was tested for self-association by FPLC
Question: Does B2 bind [2]?
Answer: no binding (tested: >1 mg/ml)

B3: mKate2.5 (other)
chain: MVSELIKENMHMKLYMEGTVNNHHFKCTSEGEGKPYEGTQTMRIKVVEGGPLPFAFDILATSFMYGSKTFINHPQGIPDFFKQSFPEGFTWERVTTYEDGGVLTATQDTSLQDGCLIYNVKIRGVNFPANGPVMQKKTLGWEASTETLYPADGGLEGACDMALKLVGGGHLICNLETTYRSKKPAKNLKMPGVYNVDRRLERIKEADNETYVEQHEVAVARYSTGGAGDGGK
notes: as for B2
Question: Does B3 bind [2]?
Answer: no binding (tested: >1 mg/ml)
